From patent US20150086555A1

Tests used:
Conditions in all cases: remark: other sources report otherwise
[1] = molecular target: recombinant soluble homotrimeric HA of A/Anhui/1/05 (H5N1) (Influenza A virus A/Anhui/1/2005(H5N1)); assay: trimeric HA microarray, transfection supernatant set 4
[2] = molecular target: recombinant soluble homotrimeric HA of A/California/4/09 (H1N1) (Influenza A virus A/California/04/2009(H1N1)); assay: as above
[3] = molecular target: recombinant soluble homotrimeric HA of A/Egypt/3300-NAMRU3/08 (H5N1) (Influenza A virus A/Egypt/3300-NAMRU3/2008(H5N1)); assay: as above
[4] = molecular target: recombinant soluble homotrimeric HA of A/Indonesia/5/05 (H5N1) (Influenza A virus A/Indonesia/5/2005(H5N1)); assay: as above
[5] = molecular target: recombinant soluble homotrimeric HA of A/Japan/305/57 (H2N2) (Influenza A virus A/Japan/305/1957(H2N2)); assay: as above
[6] = molecular target: recombinant soluble homotrimeric HA of A/Netherlands/219/03 (H7N7) (Influenza A virus A/Netherlands/219/03(H7N7)); assay: as above
[7] = molecular target: recombinant soluble homotrimeric HA of A/Solomon Islands/3/06 (H1N1) (Influenza A virus A/Solomon Islands/3/2006(H1N1)); assay: as above
[8] = molecular target: recombinant soluble homotrimeric HA of A/South Carolina/1/18 (H1N1) (Influenza A virus A/South Carolina/1/18 (H1N1)); assay: as above
[9] = molecular target: recombinant soluble homotrimeric HA of A/Vietnam/1203/04 (H5N1) (Influenza A virus A/VietNam/1203/2004(H5N1)); assay: as above
[10] = molecular target: T1, recombinant soluble homotrimeric HA of A/Wisconsin/67/05 (H3N2) (Influenza A virus A/Wisconsin/67/2005(H3N2)); assay: as above
[11] = molecular target: recombinant soluble homotrimeric HA of A/chicken/Vietnam/NCVD-016/08 (H5N1) (Influenza A virus A/chicken/Vietnam/NCVD-016/2008(H5N1)); assay: as above
[12] = molecular target: T2, recombinant soluble homotrimeric HA of A/duck/Yangzhou/02/05 (H8N4) (Influenza A virus A/duck/Yangzhou/02/2005(H8N4)); assay: as above
[13] = molecular target: T3, recombinant soluble homotrimeric HA of A/northern shoveler/California/HKWF115/07 (H6) (Influenza A virus A/northern shoveler/California/HKWF115/2007(H6N1)); assay: as above
[14] = molecular target: T1, recombinant soluble homotrimeric HA of …; assay: trimeric HA microarray, transfection supernatant set 2
[15] = molecular target: T2, recombinant soluble homotrimeric HA of …; assay: as above
[16] = molecular target: T4, recombinant soluble homotrimeric HA of A/swine/Ontario/01911-2/99 (H4N6) (Influenza A virus A/Swine/Ontario/01911-2/99 (H4N6)); assay: as above
[17] = molecular target: T1, recombinant soluble homotrimeric HA of …; assay: trimeric HA microarray, transfection supernatant set 3
[18] = molecular target: T2, recombinant soluble homotrimeric HA of …; assay: as above
[19] = molecular target: T4, recombinant soluble homotrimeric HA of …; assay: as above
[20] = molecular target: T4, recombinant soluble homotrimeric HA of …; assay: trimeric HA microarray, transfection supernatant set 4
[21] = molecular target: recombinant soluble homotrimeric HA of A/Hong Kong/2108/03 (H9N2) (Influenza A virus A/HK/2108/2003(H9N2)); assay: trimeric HA microarray, transfection supernatant set 2
[22] = molecular target: T3, recombinant soluble homotrimeric HA of …; assay: as above
[23] = molecular target: T5, recombinant soluble homotrimeric HA of A/Hong Kong/1073/99 (H9N2) (Influenza A virus A/Hong Kong/1073/99 (H9N2)); assay: as above
[24] = molecular target: T5, recombinant soluble homotrimeric HA of …; assay: trimeric HA microarray, transfection supernatant set 3
[25] = molecular target: T3, recombinant soluble homotrimeric HA of …; assay: as above

Binder	Trimeric HA Binding: RLU [1] [RLU]	Trimeric HA Binding: RLU [2] [RLU]	Trimeric HA Binding: RLU [3] [RLU]	Trimeric HA Binding: RLU [5] [RLU]	Trimeric HA Binding: RLU [6] [RLU]	Trimeric HA Binding: RLU [8] [RLU]	Trimeric HA Binding: RLU [9] [RLU]	Trimeric HA Binding: RLU [10] [RLU]	Trimeric HA Binding: RLU [11] [RLU]	Trimeric HA Binding: RLU [12] [RLU]	Trimeric HA Binding: RLU [14] [RLU]	Trimeric HA Binding: RLU [15] [RLU]	Trimeric HA Binding: RLU [16] [RLU]	Trimeric HA Binding: RLU [21] [RLU]	Trimeric HA Binding: RLU [22] [RLU]	other results
TCN-535 (5246_P19) (antibody, V domains shown) VH: QVQLVQSGSEVKKPGTSVKVSCTASGSVFTNYGISWVRQAPGQGLEWMGGIIPLFGAAKYAQKFQGRVTITADESTKTVYMELSRLTSKDTAIYFCAKAPRVYEYYFDQWGQGTPVTVSS VL: EIVLTQSPGTLSLSPGERATLSCRASQSVSSSQLAWYQQKPGQAPRLIIYGASTRATGIPDRFSGSGSGTDFTLTIGRLEPEDFAVFFCQQYSTSPPTFGQGTKVDFK	24	25200	25300	21500	159	22400	25200	4450	20900	428	–	–	–	–	–	Trimeric HA Binding: RLU [4]: 18200 RLU; Trimeric HA Binding: RLU [7]: 836 RLU; Trimeric HA Binding: RLU [13]: 18100 RLU
TCN-504 (3251_K17) (antibody, V domains shown) VH: QVQLQESGPGLVKPSETLSLTCAVSGVSISNIDFYWGWIRQPPGKGLEWIGNIYYTGITFYNPSLSSRVAISIDTSKNQFSLTLTSVTAADTAMYYCARHYGDSEAINDAFDIWGQGTMLTVSS VL: EIVMTQSPATLSVSPGERATLSCRASQSVGNSLAWYQQRPGQAPRLLIYGASTRATGIPPRFSGSGSGTEFTLTISSLQTEDFAVYYCQQYINWRPLSFGGGTKVEIK	14100	549	24800	19600	6710	21700	25700	20600	19200	19900	21600	17800	32500	–	–	Trimeric HA Binding: RLU [17]: 21400 RLU; Trimeric HA Binding: RLU [18]: 19600 RLU; Trimeric HA Binding: RLU [19]: 34500 RLU; Trimeric HA Binding: RLU [4]: 18200 RLU; Trimeric HA Binding: RLU [7]: 14600 RLU; Trimeric HA Binding: RLU [20]: 21800 RLU
TCN-528 (5087_P17) (antibody, V domains shown) VH: QVQLVQSGSEVKKPGASVKVSCKASGYTFTNYDINWIRQAPGQGLEWMGWINPNSGTTGSAQRFQGRVTITVDTSITTVYMELSSLRSDDTAIYYCARGRELLRLQHFLTDSQSERRDCFDPWGQGTLVTVSS VL: DIQMTQSPSSLSASVGDRVTITCRANQDIGIYLNWYQQNPGKVPKLLLHGASSLQGGVPSRFSASGSGTDFTLTIHSLQPEDLATYYCQQSRRLPYTFGQGTRVELK	–	–	–	–	–	–	–	–	–	–	46000	19800	49200	33600	28400	–
TCN-522 (3212_I12) (antibody, V domains shown) VH: QVQLQQWGAGLLKPSETLSLTCTVSGGSLTDYSWNWIRQPPGKGLEWIGDTLHNGYTNYNPSLRGRVSISIDTSKNQVSLRLTSVTAADTALYYCARGSGGYGGFDYFGKLRTWDFWGQGTLVTVSS VL: DIQLTQSPSSLSASVGDRVTITCRASQGIRNDLGWYQQKPGNAPKRLIFGASSLQSGVPSRFSGSGSGTEFTLTISSLQPEDFATYYCLQHNSYPYTFGQGTKLEIK	–	–	–	–	–	–	–	–	–	–	–	1650	–	203	54400	Trimeric HA Binding: RLU [23]: 11800 RLU
TCN-536 (5095_N01) (antibody, V domains shown) VH: QVQLQQWGAGLLKPSETLSLTCAVYGGSFSVSGYYWSWIRQPPGRGLEWIGEISHGGSTNYNPSLKSRVTISVDTTKNQFSLRLSSVTAADTAVYYCARGTDPDTEVYCRVGNCAAFDYWGQGSLVTVSS VL: EIILAQSPGTLSLSPGERATLSCRASQFVSTRSLAWYQQRPGQAPRLLIYGASSRATGIPDRFSGSGSGTDFTLTISRLEPEDFAVYYCQHYGYSPRYAFGQGSKVEIK	18	49	97	260	246	39	182	20600	19	48	–	–	–	–	–	Trimeric HA Binding: RLU [13]: 95 RLU; Trimeric HA Binding: RLU [20]: 168 RLU
TCN-527 (5086_C06) (antibody, V domains shown) VH: QVQLQESGPGLVKPSETLSLNCAVSGGSISNYYWSWIRQPPGKGLEWIGYISYNGRPKYNPSLTSRVTISVDTSKDQFSLELRSVTAADTALYYCARETRFGELLSPYDAFEIWGQGTMVTVSS VL: DIQMTQSPSSLSASVGDRVTMTCRASQNIRSYLNWYQQRPGTAPKLLIYAASTLHSGVPSRFSGGGSGTDFTLTINNLQPEDFASYYCQQSYDNPQTFGQGTKVEIK	–	–	–	–	–	–	–	–	–	–	35800	17900	30100	25500	19300	–
TCN-530 (5248_H10a) (antibody, V domains shown) VH: QVQLVQSGAEVRKPGSSVKVSCKASGGPFMSYAIGWVRQAPGQGLEWMGGINPVFGRPHYAQKFQGRVTIATDDSTKTSYMELSSLTSEDTGMYYCASRYSRSSPGTFESWGQGTLVTVSS VL: EIVMTQFPATLSVSPGERVTLSCRASQSVSNNLAWYQQKPGQPPRLLIYDASTRATGVPAKFSGTGSGTEFTLSISSLQSEDFAVYYCQQYHNWPPSYSFGLGTKLEIK	–	–	–	–	–	–	–	–	–	–	–	–	–	–	–	Trimeric HA Binding: RLU [24]: 10200 RLU; Trimeric HA Binding: RLU [17]: 3050 RLU; Trimeric HA Binding: RLU [18]: 227 RLU; Trimeric HA Binding: RLU [25]: 23500 RLU; Trimeric HA Binding: RLU [19]: 123 RLU
TCN-563 (5237_B21) (antibody, V domains shown) VH: QVQLAQSGAEVKRPGSSVKVSCTASGGIFRKNAISWVRQAPGQGLEWMGGIIAVFNTANYAQKFQGRVKITADESGNTAYMELSSLRSDDTAVYYCASHPKYFYGSGSYPDFWGQGTLVTVSS VL: QSALTQPRSVSGSPGQSVTISCTGSSSDVGASNSVSWYQQHPGKAPKLVIYDVTERPSGVPHRFSGSKSGNTASLTVSGLQPEDEADYFCCAYGGKYLVVFGGGTKVTVL	–	–	–	–	–	–	–	–	–	–	23700	6280	2250	364	21900	Trimeric HA Binding: RLU [23]: 49200 RLU
